Consider 167 variants from the RNAGym collection of RNA variant scans (doi:10.7554/elife.80360).

B1: HDV Ribozyme (parent)
chain: GGCCGGCAUGGUCCCAGCCUCCUCGCUGGCGCCGGCUGGGCAACAUUCCGAGGGGACCGUCCCCUCGGUAAUGGCGAAUGGGACCCA

Variants of B1 are the subject of the series. The experiment in a line: self-cleavage, relative activity (ratio to wild type); higher = more cleavage; co-transcriptional.
For G10U G31C, the self-cleavage is 0.158.
As for G11A C44U, the figure is 0.0723; as for G11A C44G, 0.
G10U U27A: the self-cleavage was 0.642.
Consider G10U U27G, for which the self-cleavage was 0.465.
On to G11A C13A, for which the self-cleavage was 0.0791.
For G10U G74A the value was 0.107.
As for G11A C33G, the figure is 0.0554; as for G11A C33A, 0.151; as for G11A G17U, 0.251.
As for G11A G17C, the figure is 0.113.
Consider G11A G17A, for which the self-cleavage came out at 0.544.
As for G10U G80A, the figure is 0.131; as for G10U G80C, 0.0936.
As for G11A C49G, the figure is 0.156.
Consider G10U C66U, for which the self-cleavage was determined as 0.728.
For G10U C66G the value was 0.717.
For G11A C18U the value was 0.12; for G11A C18A, 0.0841; for G11A C18G, 0.041.
For G10U G39C the value was 0.138.
For G10U G82A, the self-cleavage is 0.241.
As for G11A G73U, the self-cleavage was determined as 0.0769.
For the variant G11A G73C, the self-cleavage was found to be 0.0252.
As for G11A G73A, the figure is 0.124.
For G11A C36U the value was 0.156.
For G10U G38A, the self-cleavage was determined as 0.103.
For G10U G38C the value was 0.058; for G10U U72G, 0.407; for G10U U47C, 0.499.
For G10U U47A the value was 0.514; for G10U G34A, 0.259.
For G11A G74U, the self-cleavage was found to be 0.123.
For G11A G74A the value was 0.0769.
As for G10U C84U, the figure is 0.409; as for G11A C86U, 0.338.
For G11A U20A the value was 0.0623.
Take G11A U20G: the self-cleavage worked out at 0.0326.
For G11A U20C the value was 0.
As for G10U U20G, the figure is 0.113.
For G10U U20A the value was 0.0639; for G10U U46G, 0.597; for G10U U46C, 0.352.
As to G10U U37G, the self-cleavage was 0.0978.
For G11A C58U the value was 0.322; for G11A C58A, 0.554.
For G11A C58G the value was 0.415.
As for G11A G67U, the figure is 0.237; as for G10U U12G, 0.172; as for G10U U12C, 0.0755.
For the variant G10U U12A, the self-cleavage was found to be 0.0831.
For G10U G59U the value was 0.905; for G10U G59C, 0.857; for G11A G53U, 0.588.
As for G11A C15G, the figure is 0.138.
For G11A C41A the value was 0.381; for G11A C41U, 0.396; for G11A C41G, 0.188.
G10U U79C: the self-cleavage was 0.0615.
As for G11A A78G, the figure is 0.193; as for G10U G67A, 0.611; as for G10U G67U, 0.819.
For the variant G10U G67C, the self-cleavage worked out at 0.572.
Consider G11A G34A, for which the self-cleavage is 0.358.
For G11A G34U the value was 0.219; for G11A C26U, 1.12.
For G11A C85U the value was 0.787.
Turning to G11A C85A, the self-cleavage was 0.735.
For G10U G35A the value was 0.604; for G10U G35C, 0.0723; for G10U G35U, 0.337.
As for G10U C85G, the figure is 1.03; as for G10U C85A, 1.15.
As to G11A G55C, the self-cleavage came to 0.396.
As for G11A G55U, the figure is 0.328.
As for G11A C21G, the figure is 0.04.
For G11A C21U, the self-cleavage was determined as 0.175.
For G11A C21A the value was 0.11.
For G10U U60A the value was 0.635; for G11A C84A, 0.787.
For G11A C84U the value was 0.991.
As for G11A C84G, the self-cleavage came to 0.851.
As for G10U C62G, the figure is 0.641; as for G10U C62A, 0.787.
For G10U C62U the value was 0.722.
Turning to G10U G81A, the self-cleavage was 0.026.
As for G10U G53U, the figure is 0.699.
For G10U G53C the value was 0.773.
For G11A the value was 0.42; for G11A G68U, 0.249; for G11A G68A, 0.372.
On to G11A A16C, for which the self-cleavage turned out to be 0.35.
As for G11A A16G, the figure is 0.323; as for G10U U65G, 0.619.
For G11A G39C the value was 0; for G11A G39U, 0.0989; for G11A G28A, 0.0268.
As for G11A G28C, the figure is 0.0936; as for G11A A77U, 0.109; as for G11A U12G, 0.0875.
G11A U12A: the self-cleavage worked out at 0.0831.
For G11A U12C the value was 0.0415; for G10U G52A, 0.878.
For the variant G10U G52U, the self-cleavage came out at 0.891.
As for G11A G52U, the figure is 0.548; as for G11A G52C, 0.521.
As for G11A G59C, the figure is 0.381.
For G11A G59U the value was 0.408; for G11A G40C, 0.0623.
For the variant G10U U69C, the self-cleavage amounted to 0.656.
As for G10U U69G, the figure is 0.815.
For G11A C62A the value was 0.352.
As for G11A C62U, the figure is 0.354; as for G11A A70C, 0.175.
For G11A C63U, the self-cleavage turned out to be 0.376.
Consider G10U G28A, for which the self-cleavage worked out at 0.0791.
For G10U G11C the value was 0.237; for G10U G11U, 0.344.
As for G11A A87G, the figure is 0.502; as for G10U U23A, 0.604.
In the case of G10U U23C, the self-cleavage stood at 0.62.
For G10U U23G the value was 0.0791.
As for G10U G50C, the figure is 0.817.
As for G10U G50A, the figure is 0.62; as for G11A G25U, 0.0801.
For the variant G11A G25C, the self-cleavage amounted to 0.0906.
Regarding G11A G29A, the self-cleavage worked out at 0.0633.
As for G11A C24G, the figure is 0.0747; as for G11A C24A, 0.126.
For G11A C24U the value was 0.194; for G11A C19A, 0.0811; for G11A U27G, 0.359.
For G10U G25U the value was 0.125; for G10U G25C, 0.111.
G10U G17U: the self-cleavage was 0.487.
For G10U G17A the value was 0.704; for G10U C64G, 0.669.
For G11A A42U the value was 0.158; for G11A G31C, 0.0997; for G11A G31A, 0.114.
As for G10U C86G, the figure is 0.445; as for G10U C86U, 0.867; as for G10U C75A, 0.0213.
Take G11A A83C: the self-cleavage stood at 0.0707.
As for G11A C48U, the figure is 0.326; as for G11A A43C, 0.106; as for G11A A43U, 0.198.
As for G10U G55A, the figure is 0.893; as for G10U G55U, 0.787; as for G11A C61A, 0.379.
For G11A C64U the value was 0.249.
On to G11A C64G, for which the self-cleavage turned out to be 0.705.
For G11A A51U the value was 0.468.
Turning to G11A A51G, the self-cleavage was 0.374.
Turning to G11A G80A, the self-cleavage was 0.197.
For G11A G80C the value was 0.158; for G11A A71G, 0.554; for G11A A71C, 0.295.
As for G11A A71U, the figure is 0.229.
For G10U G54U the value was 0.865; for G11A A56U, 0.487.
G11A G38C: the self-cleavage stood at 0.0911.
As for G11A G38A, the figure is 0.102; as for G11A G76A, 0.578.
As for G11A G76U, the figure is 0.623; as for G11A C30A, 0.106; as for G11A C30G, 0.0225.
